Assay [1] has as its target human FGFR2b on cells (human) (UniProt P21802). Description: flow cytometry on KATOIII cells; sample name as printed 'KATOIII_36C 01nM_023.fcs' (no decimal point printed).
For assay [2] the target is unchanged. The experiment in a line: flow cytometry on KATOIII cells; sample name as printed 'KATOIII_36C 0004nM_025.fcs' (no decimal point printed). (Flow cytometry measures light scatter and fluorescence of single cells or particles in a stream.)
Assay [3] has the same target. The experiment in a line: flow cytometry on KATOIII cells; sample name as printed 'KATOIII_36C 002 nM_024.fcs' (no decimal point printed).
In assay [4] the target is human FGFR2b (beta)-Fc (human) (UniProt P21802). Description: SPR (Biacore T200); hFGFR2b-Fc amine-coupled to CM5 chip, antibody injected at 0-200 nM. (Surface plasmon resonance follows binding to a sensor surface in real time, without labels.)
Assay [5] has as its target human FGFR2b on cells (human) (UniProt P21802). The experiment in a line: flow cytometry on KATOIII cells; sample name as printed 'KATOIII_36C 00009nM_026.fcs' (no decimal point printed).
Assay [6] deals with human FGFR2b (beta)-Fc (human) (UniProt P21802). The experiment in a line: surface plasmon resonance (Biacore T200), hFGFR2b-Fc amine-coupled to a CM5 chip, antibody injected.
Assay [7] addresses recombinant human FGFR2b-Fc (murine Fc) (human) (UniProt P21802). Description: ELISA, plate coated with 0.1 ug/ml human FGFR2b-Fc, anti-human IgG HRP detection. (In general: ELISA stands for enzyme-linked immunosorbent assay.)
Assay [8] has as its target human FGFR2b on cells (human) (UniProt P21802). Description: flow cytometry on KATOIII cells; sample name as printed 'KATOIII_36C 05nM_022.fcs' (no decimal point printed).
The target is the same in assay [9]. The experiment in a line: flow cytometry on FGFR2b expressing KATOIII cells.
Assay [10] concerns the target human FGFR2b (beta)-Fc (human) (UniProt P21802). The experiment in a line: ELISA, plate coated with HuFGFR2b.

B1: Ab 36c (antibody, V domains shown)
VH: QPYLQQSGAELVRPGASVKMSCKASGYTFTSYNMHWVKQTPRQGLEWIGAIFPENGDTSYNQKFKGKATLTVDKSSSTAYMQLSSLTSEDSAVYFCARGGFDYWGQGTTLTVSS
VL: DIVMTQSHKFMSTSVGDRVSITCKASQDVSTNVAWYQQKPGQSPKLLIFSASYRYTGVPDRFAGSGSGTDFTFTISSVQAEDLAVYYCQQHYSSPYTFGGGTKLDIK
On to B1, for which the Mean : FITC-A in assay [1] was found to be 455; in [2], 128; in assay [3], 199; in assay [5], 121; in [8], 1800. Further, the Kd (commonly the constant that tells how readily two partners part at equilibrium) in [4] was 0.187 nM; in [6] it was 0.189 nM. Also, the koff – broadly, a measure of how fast the partners let go of each other – in assay [6] came to 2.44e-05 s⁻¹. Further, the association rate constant (kon) (in general, the rate constant with which the complex forms) in assay [6] came to 129000 M⁻¹ s⁻¹. Further, the EC50 (read off the curve) (commonly the concentration needed to bring the measured effect to its halfway point) in [7] was 0.3 nM. Also, in [9], the half-maximal effective concentration (EC50) – broadly, the concentration needed to bring the measured effect to its halfway point – worked out at 8 nM.

B2: Ab 36 (antibody, V domains shown)
VH: B1 VH
VL: B1 VL
With B2, the EC50 (read off the curve) in assay [10] amounted to 0.2 nM.

B3: Ab hu36-2 (antibody, human IgG1, V domains shown)
VH: QVQLVQSGAEVKKPGSSVKVSCKASGYTFTSYNMHWVRQAPGQGLEWIGAIFPENGDTSYNQKFKGRATITADKSTSTAYMELSSLRSEDTAVYYCARGGFDYWGQGTTVTVSS
VL: DIQMTQSPSSLSASVGDRVTITCKASQDVSTNVAWYQQKPGKAPKLLIFSASYRYTGVPSRFSGSGSGTDFTFTISSLQPEDIATYYCQQHYSSPYTFGQGTKLEIK
B3: in assay [4], the Kd was 0.189 nM. In addition, in [6], the Kd came out at 0.187 nM, the koff came out at 2.39e-05 s⁻¹ and the kon turned out to be 128000 M⁻¹ s⁻¹.

Values taken from patent US20230052680A1.
